This note sets out measurements from publication PMC10572367, “The Generation of a Nanobody-Based ELISA for Human Microsomal Epoxide Hydrolase” (International Journal of Molecular Sciences, 2023).

Experiment [1] addresses T1, recombinant human microsomal epoxide hydrolase (Homo sapiens, UniProt P07099, final four amino acid residues of mEH (LERQ) were mutated to the Factor Xa …).
T1 construct: human microsomal epoxide hydrolase (mEH), Uniprot P07099; Extracted from microsomes with beta-DDM; also called mEH; human mEH; source: Tni (Trichoplusia ni) insect cells, baculovirus, purified (Ni-NTA, size exclusion chromatography)
Briefly: ELISA; phage ELISA of randomly picked single phage clones against recombinant human mEH. To be noted: one partner purified.

Experiment [2] concerns the target T1, recombinant human microsomal epoxide …. Briefly: ELISA; direct ELISA testing the titer of the candidate nanobodies; format not described. The following applies: both partners purified.
For experiment [3] the target is unchanged. Description: far-Western, overlay or dot blot; Western blot: recombinant human mEH denatured, run on Mini-protean TGX gels, transferred to PVDF; nanobody as detection antibody (HRP-labelled anti-HA as tracer, or MQM8-HRP). The following applies: both partners purified. Background: In western blotting, separated proteins are transferred to a membrane and probed.

The target in experiment [4] is T2, human mEH in human tissue whole extracts (Homo sapiens, endogenous, UniProt P07099).
T2 construct: human microsomal epoxide hydrolase, endogenous in human tissue extracts (adrenal, esophagus, liver, pancreas, ovary, heart, hippocampus); also called bioactive mEH in the crude extracts; source: endogenous, whole tissue extracts of human commercial tissue samples (BioChain Institute)
Briefly: ELISA; sandwich ELISAs of formats A, B and C (mAb capture, native or biotinylated MQ30 detection) on human whole tissue extracts diluted 10^3, 10^4 and 10^5-fold. To be noted: one partner purified. A general note: An ELISA detects its analyte on a solid surface through an enzyme-linked reagent.

The next experiment has as its target T3, rat mEH (rat) (UniProt P07687).
T3 sequence: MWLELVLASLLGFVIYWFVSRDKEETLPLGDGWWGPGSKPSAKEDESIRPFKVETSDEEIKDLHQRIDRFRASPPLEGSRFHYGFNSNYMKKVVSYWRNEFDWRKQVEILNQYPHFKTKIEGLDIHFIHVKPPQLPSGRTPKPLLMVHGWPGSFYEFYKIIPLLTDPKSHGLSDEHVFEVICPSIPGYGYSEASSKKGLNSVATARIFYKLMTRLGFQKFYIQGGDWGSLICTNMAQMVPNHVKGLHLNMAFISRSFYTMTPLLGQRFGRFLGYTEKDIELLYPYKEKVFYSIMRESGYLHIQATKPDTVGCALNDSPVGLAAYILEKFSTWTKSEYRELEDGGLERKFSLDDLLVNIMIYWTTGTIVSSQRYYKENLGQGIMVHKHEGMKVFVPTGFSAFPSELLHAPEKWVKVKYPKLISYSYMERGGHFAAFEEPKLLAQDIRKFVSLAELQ
Description: ELISA; cross-reactivity in the format A sandwich (mAb capture, MQ30 detection): epoxide hydrolases spiked at 1000 ng mL^-1 in PBS, read against the human mEH standard curve; a signal needs capture by the mAb as well as MQ30.

The next experiment addresses T4, human EH-4 (human) (UniProt Q8IUS5).
T4 sequence: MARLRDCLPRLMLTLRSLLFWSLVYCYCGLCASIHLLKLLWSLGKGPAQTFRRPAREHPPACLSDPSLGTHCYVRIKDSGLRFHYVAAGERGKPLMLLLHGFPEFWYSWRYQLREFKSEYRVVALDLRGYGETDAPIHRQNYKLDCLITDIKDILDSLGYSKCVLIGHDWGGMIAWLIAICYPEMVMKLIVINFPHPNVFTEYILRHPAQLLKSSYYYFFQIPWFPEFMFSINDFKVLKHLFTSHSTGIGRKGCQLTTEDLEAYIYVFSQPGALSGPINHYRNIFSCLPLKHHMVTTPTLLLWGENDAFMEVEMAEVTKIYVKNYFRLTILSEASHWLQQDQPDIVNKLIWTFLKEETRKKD
The experiment is described as above.

The target of the next experiment is T5, human sEH (human) (UniProt P34913).
T5 sequence: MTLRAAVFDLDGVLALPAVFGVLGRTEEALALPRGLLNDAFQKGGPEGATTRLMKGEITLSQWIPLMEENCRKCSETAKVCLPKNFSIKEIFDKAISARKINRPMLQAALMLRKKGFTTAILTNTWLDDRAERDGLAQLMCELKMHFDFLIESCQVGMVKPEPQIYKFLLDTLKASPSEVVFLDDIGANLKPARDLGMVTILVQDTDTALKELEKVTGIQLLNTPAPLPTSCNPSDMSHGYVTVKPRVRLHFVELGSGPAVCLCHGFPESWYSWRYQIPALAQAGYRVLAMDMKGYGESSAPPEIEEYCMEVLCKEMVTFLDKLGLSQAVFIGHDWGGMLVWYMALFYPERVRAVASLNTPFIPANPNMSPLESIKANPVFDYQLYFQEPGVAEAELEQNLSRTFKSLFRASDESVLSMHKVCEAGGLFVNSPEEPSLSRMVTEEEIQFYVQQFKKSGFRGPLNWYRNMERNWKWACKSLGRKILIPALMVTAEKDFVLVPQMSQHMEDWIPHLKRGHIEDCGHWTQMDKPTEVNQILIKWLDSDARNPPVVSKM
The experiment is described as above.

The target of another experiment is T6, human EH-3 (human) (UniProt Q9H6B9).
T6 sequence: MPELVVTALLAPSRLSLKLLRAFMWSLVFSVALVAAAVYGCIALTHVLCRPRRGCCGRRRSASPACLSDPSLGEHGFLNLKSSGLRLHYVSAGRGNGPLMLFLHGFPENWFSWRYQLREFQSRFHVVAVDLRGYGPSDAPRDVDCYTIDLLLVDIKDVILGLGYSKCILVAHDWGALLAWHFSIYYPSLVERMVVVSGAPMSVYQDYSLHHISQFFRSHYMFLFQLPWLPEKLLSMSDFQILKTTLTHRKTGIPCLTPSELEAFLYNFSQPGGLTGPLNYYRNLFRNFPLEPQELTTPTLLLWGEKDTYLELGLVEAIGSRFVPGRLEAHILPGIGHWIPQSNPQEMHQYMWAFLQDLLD
The description is as above.

T1 sequence (P07099 other isoform, or with tags, fused parts or gaps with the stated changes): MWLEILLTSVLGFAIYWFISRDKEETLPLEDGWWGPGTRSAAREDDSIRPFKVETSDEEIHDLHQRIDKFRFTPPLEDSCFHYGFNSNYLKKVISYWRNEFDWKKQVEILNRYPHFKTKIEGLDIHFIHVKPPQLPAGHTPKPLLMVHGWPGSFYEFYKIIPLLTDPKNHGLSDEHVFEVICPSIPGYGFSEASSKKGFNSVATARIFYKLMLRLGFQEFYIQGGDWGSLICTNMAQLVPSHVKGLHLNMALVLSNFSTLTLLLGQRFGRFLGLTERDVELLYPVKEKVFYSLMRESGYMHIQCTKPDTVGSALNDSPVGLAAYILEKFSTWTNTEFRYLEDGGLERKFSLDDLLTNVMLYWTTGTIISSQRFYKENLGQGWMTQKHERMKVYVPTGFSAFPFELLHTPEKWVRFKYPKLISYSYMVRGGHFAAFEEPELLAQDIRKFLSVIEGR
T2 sequence (P07099 whole entry): as the sequence (P07099 other isoform, or with tags, fused parts or gaps with the stated changes) above, with I452L, G454R, R455Q counted along it

B1: nanobody MQ4 (VHH)
VHH: QVQLVESGGGLAQPGGSLRLSCDASGSPYIINDMGWYRQAPGKQRELVASITRRGITNVADSVKGRFTISRDNAKMTVYLQMNSLKSEDTALYNCHAQPAVTPRMDYWGQGTQVTVSS
notes: Selected from a phage library of an immunised llama; In the phage ELISA the clone stood on phage, not as the soluble purified VHH; also called VHH MQ4; source: E. coli TOP10F', purified (B-PER extraction, Ni-NTA); in the phage ELISA as a phage clone
Regarding B1, the binding result in experiment [1] is listed as “binds”.

B2: nanobody MQM8 (VHH)
VHH: QLQLVESGGGFVPPGGSLRLSCAASGFIFRFVGMGRYRQAPGKQRELVASITGNDYRNYADSVKGRFTISRDNYKNTVDLQMNSLKPEDTAVYYCNRVPLDFGSWGQGTQVTVSS
notes: Selected from a phage library of an immunised llama; In the phage ELISA the clone stood on phage, not as the soluble purified VHH; also called VHH MQM8; source: E. coli TOP10F', purified (B-PER extraction, Ni-NTA); in the phage ELISA as a phage clone
As for B2, in experiment [2], the binding result was “binds”.

B3: MQM8-HRP (VHH)
VHH: B2 VHH
notes: as the VHH of m5 (MQM8); Named only as 'MQM8-HRP as a signal tracer'; also called HRP-labelled VHH MQM8
With B3, in experiment [3], the binding result is given as “binds”.

B4: nanobody MQ30 (VHH)
VHH: QVQLVESGGGVVQPGGSLRLSCVVSGSRFSLNFMGWFRQAPGKEREFVAALIWRGDVAHYAASNKGRFTVSKESAKNTVYLQLNSLEPEDTAVYSCAAQPWYSRDTYSDSDSYKYWGQGTQVTVSS
notes: Selected from a phage library of an immunised llama; In the phage ELISA the clone stood on phage, not as the soluble purified VHH; also called VHH MQ30; native VHH MQ30; source: E. coli TOP10F', purified (B-PER extraction, Ni-NTA); in the phage ELISA as a phage clone
As to B4, the binding result in experiment [4] is on record as “binds”. For the same molecule, the cross-reactivity with rat mEH (rat) is 0.11%; with human EH-4 (human), below 0.01%; with human sEH (human) it was below 0.01%; with human EH-3 (human), below 0.01%. In the experiment with rat mEH (rat), this molecule registered a measured concentration at 1000 ng mL^-1 spiked of 1.05 ng/mL.

B5: biotinylated VHH MQ30 (VHH)
VHH: B4 VHH
notes: as the VHH of m4 (MQ30); also called biotinylated MQ30; source: E. coli TOP10F', purified (Ni-NTA), then biotinylated
As for B5, the binding result in experiment [4] is on record as “binds”.

B6: nanobody MQ17 (VHH)
VHH: QLQLVESGGGLVQPGGSLTLSCAASGSIFTIDALGWFRQAPGKEREFVAALPWRDGVPYYAASNKGRFSVSKDSAKNTVFKNTVFLQVNNLEPEDTAVYSCAARPWYATSTYSDSDSYGYWGQGTQVTVSS
notes: Selected from a phage library of an immunised llama; In the phage ELISA the clone stood on phage, not as the soluble purified VHH; also called VHH MQ17; source: E. coli TOP10F', purified (B-PER extraction, Ni-NTA); in the phage ELISA as a phage clone
For B6, in experiment [2], the binding result is listed as “binds”.
